Experiments:
[1] = target: Six4-HA (HA-tagged Six4, Six4-3xHA) (Drosophila); assay: co-IP; two of the three tagged proteins co-expressed in S2 cells; graded concentrations (150mM to 1200mM) of NaCl in the 1% NP-40 lysis buffer (S7C-E Fig; lanes with two proteins of S7F Fig, % co-IP quantified from band intensities, n = 3)
[2] = target: Six4-HA (HA-tagged Six4, Six4-3xHA) (Drosophila); assay: co-IP; Six4-HA, Myc-Erm and Flag-PntP1 all three co-expressed in S2 cells; IP with anti-HA or anti-Flag antibody; 150mM or 1200mM NaCl; % co-IP quantified from band intensities, normalized by the IPed protein, n = 3 (S7F Fig)

Myc-Erm (Myc-tagged Earmuff) (from UniProt Q9VQ56 1-611) (natural protein)
% co-IPed Myc-Erm with the anti-HA antibody (1200mM NaCl, without Flag-PntP1) [1]: 6.7% | % co-IPed Myc-Erm with the anti-HA antibody (1200mM NaCl, Flag-PntP1 co-expressed) [2]: 13.6%

Reference: publication PMC7895384
